According to PMC8327350, “Interaction between the transmembrane domains of neurotrophin receptors p75 and TrkA mediates their reciprocal activation” (The Journal of Biological Chemistry, 2021):
Blank lines part the entries; values can stand above or below the molecule they belong to. No end group written: not given here.

B1: p75-TM-C257A (C257A point mutant form of p75TM) (domain or fragment, human)
chain: MTRGTTDNLIPVYASILAAVVVGLVAYIAFKRWNSSKQNKQ
modifications: also: 15N-labeled in one set, unlabeled in the other
notes: methionine printed before T245; Seen as monomer, noncovalent homodimer and heterodimer with TrkA-TM in the NMR samples; also called p75-C257A; p75-C257A-TM; source: cell-free expression (E. coli Rosetta(DE3)pLysS S30 extract), in DPC micelles

How the values were obtained:
[1] = target: full-length TrkA tagged with mTurquoise (UniProt P04629)
full-length TrkA tagged with mTurquoise, sequence (P04629 33-796): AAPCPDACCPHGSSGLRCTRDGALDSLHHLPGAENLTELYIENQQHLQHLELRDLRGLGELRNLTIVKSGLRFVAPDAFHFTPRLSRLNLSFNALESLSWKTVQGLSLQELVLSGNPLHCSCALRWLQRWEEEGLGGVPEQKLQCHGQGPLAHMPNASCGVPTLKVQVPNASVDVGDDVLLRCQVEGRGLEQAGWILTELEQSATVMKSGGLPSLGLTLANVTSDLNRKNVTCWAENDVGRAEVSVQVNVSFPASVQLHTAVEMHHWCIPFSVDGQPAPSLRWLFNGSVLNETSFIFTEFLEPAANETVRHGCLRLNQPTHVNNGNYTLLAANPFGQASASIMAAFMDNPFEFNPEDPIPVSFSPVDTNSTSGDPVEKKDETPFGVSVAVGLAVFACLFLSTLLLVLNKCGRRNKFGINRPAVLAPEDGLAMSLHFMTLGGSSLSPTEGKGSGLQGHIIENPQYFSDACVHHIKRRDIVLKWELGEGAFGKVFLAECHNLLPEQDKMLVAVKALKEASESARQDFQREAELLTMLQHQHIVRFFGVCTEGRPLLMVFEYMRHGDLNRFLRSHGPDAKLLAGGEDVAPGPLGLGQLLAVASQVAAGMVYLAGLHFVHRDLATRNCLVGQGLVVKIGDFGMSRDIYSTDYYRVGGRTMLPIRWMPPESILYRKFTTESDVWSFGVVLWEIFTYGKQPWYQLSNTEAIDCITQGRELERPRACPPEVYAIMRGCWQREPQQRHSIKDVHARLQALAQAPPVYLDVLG

[2] = target: the molecule itself; test: NMR cross-correlated relaxation (rotational correlation time, hydrodynamic radius); cross-correlated relaxation rates of p75-TM-C257A amide signals (I259, V263, G266, A269, Y270) of monomer, homodimer and heterodimer in DPC micelles, 45 °C
[3] = target: the molecule itself; test: NMR titration; unlabeled p75-TM-C257A added incrementally to 0.5 mM 15N-labeled TrkA-TM; DPC micelles, LPR 80, pH 5.9, 318 K, 20 mM sodium phosphate
[4] = target: B1; test: NMR cross-correlated relaxation (rotational correlation time, hydrodynamic radius); cross-correlated relaxation rates of p75-TM-C257A amide signals (I259, V263, G266, A269, Y270) of monomer, homodimer and heterodimer in DPC micelles, 45 °C; details: both partners purified

EC50 of NGF for TrkA phosphorylation (activation loop, Western blot) in HeLa cells coexpressing TrkA and p75-TNFR, NGF 0 to 100 ng/ml [1]: 2.7 nM
Molecule: p75-TNFR (p75 with its TMD swapped with the one from the TNFR) (from UniProt P08138 29-427) (receptor)

stoichiometry N [4]: 1 TrkA-TM per p75-TM-C257A (heterodimer)
B2: human TrkA-TM (domain or fragment)
chain: MKKDETPFGVSVAVGLAVFACLFLSTLLLVLNKAGRRNK
modifications: also: 15N-labeled in one set, unlabeled in the other
notes: methionine printed before K410; human TrkA transmembrane domain, K410 to K447; the A at 442 is printed underlined and not explained; also called TrkA-TM-wt; TrkA-TMD; source: cell-free expression (E. coli Rosetta(DE3)pLysS S30 extract), in DPC micelles
binding result [3]: binds

Second part, the molecule before the results:

Molecule: full-length p75 tagged with enhanced YFP (from UniProt P08138 29-427) (receptor)
EC50 of NGF for TrkA phosphorylation (activation loop, Western blot) in HeLa cells coexpressing TrkA and p75, NGF 0 to 100 ng/ml [1]: 0.299 nM

Molecule: p75–AGA mutation (triple mutation A262,G266,A269 to Ile) (from UniProt P08138 29-427) (receptor)
EC50 of NGF for TrkA phosphorylation (activation loop, Western blot) in HeLa cells coexpressing TrkA and p75–AGA, NGF 0 to 100 ng/ml [1]: 1.7 nM

Molecule: B1
stoichiometry N [2]: 2 chains in the oligomer (homodimer)
